The subject of assay [1] is human T cell clones T-50 and T-87. As to the kind of experiment: Peptide-specific T cell activation with melanoma cells as antigen-presenting cells, H3-thymidine incorporation. The assay is classed as cell-based. The following applies: melanoma cells as APC, tetanus toxoid peptide p4; CIITA transfected vs 48 hours interferon gamma. Here is the method:
FIG. 9. Activation of human T cell clones with transfectants and interferon-stimulated cells used as APC's. Three types of cells were tested as APC'S: Untransfected melanoma cell line, MHC class II negative (o); The same cell line following 48 hours of exposure to […] of interferon gamma, MHC class II positive (black square ); The same cell line previously transfected with CIITA cDNA, MHC class it positive (black triangle). These cells were treated with various concentrations of p4, a tetanus toxoid peptide, at the concentrations indicated, fixed by UV light and incubated with two different human T cell clones specific for that peptide, T-50 and T-87. The extent of T cell activation was measured by incorporation of […] in a standard assay, and expressed as “stimulation index”.
Cells where the expression of MHC class II molecules had been induced by the transactivator gene CIITA (as CIITA cDNA) were tested for their ability to bind exogenously provided peptides and to present such peptides to T cell clones. These CIITA transfectants were compared with the same cells where MHC class II expression had been induced by interferon gamma. […] Peptide-specific T cell activation by these two types of MHC class II positive cells was measured by H3-thymidine incorporation, expressed as a stimulation index. […]
Background: Incorporation of labelled thymidine or its analogues reports DNA synthesis.

Assay [2] concerns MHC class II positive cells. Briefly: Peptide binding ability of MHC class II positive melanoma cells. The following applies: CIITA transfectants vs interferon activated. The assay is classed as cell-based, human. On the procedure:
Cells where the expression of MHC class II molecules had been induced by the transactivator gene CIITA (as CIITA cDNA) were tested for their ability to bind exogenously provided peptides and to present such peptides to T cell clones. These CIITA transfectants were compared with the same cells where MHC class II expression had been induced by interferon gamma. The two types of cells expressed MHC class II molecules at the surface at a similar level. […] Peptide-specific T cell activation by these two types of MHC class II positive cells was measured by H3-thymidine incorporation, expressed as a stimulation index. In this particular experiment, melanoma cells were used as antigen-presenting cells.
In agreement with these functional results, the peptide binding ability of these two types of MHC class II positive cells was drastically different, being low in the interferon activated cells and high in the CIITA transfectants. Thus, CIITA induces the expression of MHC class II molecules that are unusual in their highly efficient capacity to bind and to present peptides to T lymphocytes, leading to activation of these lymphocytes.

Data on one molecule can be found in US20020155542A1, “Inhibitors for suppressing the activity of proteins displaying CIITA activity, methods for their identification and pharmaceutical compositions” (priority 1994, published 2002).

B1: interferon gamma (protein, UniProt P01579 24-161, looked up)
Interferon gamma: QDPYVKEAENLKKYFNAGHSDVADNGTLFLGILKNWKEESDRKIMQSQIVSFYFKLFKNFKDDQSIQKSVETIKEDMNVKFFNSNKKKRDDFEKLTNYSVTDLNVQRKAIHELIQVMAELSPAAKTGKRKRSQMLFRG
notes: lymphokine used to induce MHC class II expression in melanoma cells, comparator to CIITA transfection
On to B1, for which, in assay [1], the “peptide-specific T cell activation (stimulation index)” value is reported as “failed to induce significant T cell activation”. In addition, the peptide binding ability entry in assay [2] is reported as “low”.
